Source: US20230399384A1 (University of Texas, published 2023)
Like-named read-outs stand apart in the source and are kept apart here.

How the values were obtained:
[1] = target: T1, sCoV2-RBD (Fc-tagged RBD of SARS-CoV-2 S protein) (SARS-CoV-2; human, UniProt P0DTC2 319-541); assay: ELISA titration on coated sCoV2-RBD
[2] = target: T2, SARS-CoV-2 RBD protein (Sino Biological, Cat: 40592-V08B) (SARS-CoV-2, UniProt P0DTC2 319-541); assay: BLI (Octet), mAb on Protein A sensor
[3] = target: T1, sCoV2-RBD (Fc-tagged RBD of SARS-CoV-2 …); assay: ELISA titration on coated sCoV2-RBD; remark: listed apart in the source
[4] = target: T1, sCoV2-RBD (Fc-tagged RBD of SARS-CoV-2 …); assay: BLI (Octet) blocking of ACE2 binding to captured sCoV2-RBD
[5] = target: T2, SARS-CoV-2 RBD protein (Sino …)
[6] = target: T1, sCoV2-RBD (Fc-tagged RBD of SARS-CoV-2 …)
[7] = target: SARS-CoV-2 S protein on live SARS-CoV-2-mNG reporter virus (SARS-CoV-2, UniProt P0DTC2 14-1273); assay: cell-based or functional assay
[8] = target: T3, sCoV-RBD (Fc-tagged RBD of SARS-CoV S protein) (SARS-CoV; human, UniProt P59594 306-527); assay: phage ELISA, scFv on phage
S protein of SARS-CoV [9] = target: T4, S protein of SARS-CoV (SARS-CoV, UniProt P59594 14-1195); assay: ELISA, purified IgG1 on coated S protein
[10] = target: T3, sCoV-RBD (Fc-tagged RBD of SARS-CoV S …); assay: ELISA, purified IgG1 on coated RBD protein
[11] = target: T3, sCoV-RBD (Fc-tagged RBD of SARS-CoV S …); assay: ELISA titration on coated sCoV-RBD
[12] = target: T1, sCoV2-RBD (Fc-tagged RBD of SARS-CoV-2 …); assay: ELISA titration on coated sCoV2-RBD; remark: listed apart in the source
[13] = target: T3, sCoV-RBD (Fc-tagged RBD of SARS-CoV S …); assay: BLI (Octet) blocking of ACE2 binding to sCoV-RBD
S protein of SARS-CoV [14] = target: T4, S protein of SARS-CoV; assay: BLI (Octet), CoV2-20 against spike of SARS-CoV
[15] = target: T2, SARS-CoV-2 RBD protein (Sino …); remark: listed apart in the source

| Binder | EC50 [1] | Kd [2] | koff [2] | kon [2] | IC50 [4] | Kd [5] | EC50 [6] | NC50 (neutralisation of reporter SARS-CoV-2, Vero E6 cells) [7] | binding result [8] | binding result (S protein of SARS-CoV [9]) | binding result [10] | also measured |
| --- | --- | --- | --- | --- | --- | --- | --- | --- | --- | --- | --- | --- |
| CoV2-11 (antibody, V domains shown) VH: QVELVESGGGLVQPGRSLRLSCEASGFSFDNYAMHWVRQTPGKGLEWVSGITGNSGTIGYADSVKGRFTISRDNAKNSLYLQMNRLRAEDTALYYCAKDTDYDSSGSYFDYWGQGTLVTVSS VL: QPVLTQPPSVAVAPGQTARITCGGKNIGRESVHWYQQKPDQAPVLVIYSDGDRPSGTSERFSGSRSGNAATLTISRVEAGDEADYFCQVWDPDTDHYVFGTGTELTVL | 0.6 nM | 4.97 nM | 0.000306 s⁻¹ | 61600 M⁻¹ s⁻¹ | 2.97 µg/mL | – | – | – | – | – | – | EC50 [3]: 0.59 nM |
| CoV2-01 (antibody, V domains shown) VH: QVLLVQSGAEMKKPGASVKVSCKTSGYTFTNSYIHWVRQAPGQGLEWMGWINPISGGTNYAQKFQGRVTMTRDTSINTAYMELSRLRSDDTAVYYCARDRGDYDYGWGTSPFYFDYWGQGTLVTVSS VL: DVQMTQSPSSLSASVGDRVTITCRASQSISRYLNWYQQKPGKAPKLLIYAASSLQSGVPSRFSGSGSGADFTLTISSLQPEDFATYYCQQSFSPPITFGQGTRLEIK | 0.83 nM | 10.8 nM | 0.000574 s⁻¹ | 53300 M⁻¹ s⁻¹ | 9.17 µg/mL | 10.8 nM | 0.83 nM | 5.2 µg/mL | no binding | no binding (tested: one concentration, not printed) | – | – |
| CoV2-32 (antibody, V domains shown) VH: EVQLVESGGGLVQPGRSLRLSCAAPRFTFDDYAIHWVRQVPGKGLEWVSGSSWNSGTIGYAPSVKGRFTISRDNAKNSLFLQMNSLRVEDTALYYCAILPGDYNRVADVFDIWGQGTMVIVSS VL: QAVVTQPPSVSGAPGQRVTISCTGSSSNIGAGYDVHWYQQLPGTAPKLLIYGNNNRPSGVPDRFSGSKSGTSASLAITGLQVEDEADYYCQSYDSSLSGYVFGTGTKVTVL | 12.6 nM | 1730 nM | 0.00158 s⁻¹ | 915 M⁻¹ s⁻¹ | 10.4 µg/mL | – | – | – | – | no binding (tested: one concentration, not printed) | no binding (tested: one concentration, not printed) | – |
| CoV2-20 (antibody, V domains shown) VH: QVQLVESGGDLVQPGRSLRLSCAASGFIFDDYAMHWVRQVPGKGPEWVSGVNRDSTYVGQADSVKGRFTISRDNAKKALFLQMDSLRVEDTALYYCVRGMTRVATDAFDFWGQGTMVTVSS VL: AIQMTQSPSSLSASVGDRVTITCRASQSINGYLNWYQQKPGKAPKLLIYSASRLQSGVPSRFSGSGSGADYTLTISNLQVEDFATYYCQQSYSTPPVTFGQGTRLEIK | 22 nM | 29.5 nM | 0.000805 s⁻¹ | 27300 M⁻¹ s⁻¹ | 14.7 µg/mL | – | – | – | – | – | – | EC50 [11]: 9.96 nM; EC50 [12]: 5.99 nM; IC50 [13]: 44.6 µg/mL; Kd (S protein of SARS-CoV [14]): 24.4 nM; koff (S protein of SARS-CoV [14]): 0.000676 s⁻¹; kon (S protein of SARS-CoV [14]): 27700 M⁻¹ s⁻¹ |
| CoV2-33 (antibody, V domains shown) VH: QVQLVESGGGLVQPGRSLRLSCAASRFTFDDHAMHWVRQAPGKGLEWVSGISWNGGIIGYADSVKGRFTISRDNAKNSLYLQMNSLRAEDTALYYCAKGMGFGESNYYAMDVWGQGTMVTVSS VL: QSALTQPASVSGSPGQSITISCTGTSSDVGGYNYVSWYQQHPGKAPKLIIYDVSNRPSGVSNRFSGSKSGNTASLTISGLQAEDEAYYYCSSYTSISNLVVFGGGTKVTVL | 10.8 nM | 168 nM | 0.00137 s⁻¹ | 8180 M⁻¹ s⁻¹ | 5.47 µg/mL | – | – | – | – | no binding (tested: one concentration, not printed) | no binding (tested: one concentration, not printed) | – |
| CoV2-17 (antibody, V domains shown) VH: QVELVESGGGLVKPGGSLRLSCAASGFTFSSYSMNWVRQAPGKGLEWVSSISSSSSYIYYADSVKGRFTISRDNAKNSLYLQMNSLRAEDTAVYYCARGNVDIVATGEVDAFDIWGQGTMVSVSS VL: QAVVTQPPSASGTLGQRVTISCSGSSSTIGSNYVYWYQQLPGTAPKLLIYRNNQRPSGVPDRFSGSKSGTSASLAISGLRSEDEADYYCAAWDDSLSGYVFGTGTQLTVL | 2.24 nM | 53.4 nM | 0.00101 s⁻¹ | 18900 M⁻¹ s⁻¹ | 4.28 µg/mL | 1.73 nM | 2.31 nM | 2.49 µg/mL | no binding | no binding (tested: one concentration, not printed) | – | Kd [15]: 1.73 nM; koff [15]: 5.78e-05 s⁻¹; kon [15]: 33300 M⁻¹ s⁻¹ |
| CoV2-18 (antibody, V domains shown) VH: QVQLVQSGAEVKKPGSSVKVSCKASGGTFSNYGISWVRQAPGQGLEWMGGIIPIFGTANYAQKFQGRVTITADKSTRTAYMELSSLRFEDTAVYYCARDRDDALTGLGLGGGFDIWGQGTMVTVSS VL: QAVVTQPPSASGTPGQRVTISCSGSTSNIGTNTANWYQHLPGTAPKLLIYGNDRRPSGVPDRFSGSKSVTSASLAISGLQSEDEADYYCAAWDERLNGYVFGTGTKLTVL | 2.41 nM | – | – | – | 6.03 µg/mL | 11.4 nM | 2.41 nM | 1.93 µg/mL | no binding | no binding (tested: one concentration, not printed) | – | Kd [15]: 11.4 nM; koff [15]: 0.000467 s⁻¹; kon [15]: 41200 M⁻¹ s⁻¹ |
| CoV2-29 (antibody, V domains shown) VH: QVQLVESGGGLVQPGGSLRLSCAASGFTFSSYWMSWVRQAPGKGLEWVANIKQDGSEKYYVDSVKGRFTISRDNAKNSLYLQMNSLRAEDTAVYYCARMADDDFWRDLPGFYMDVWGKGTTVTVSS VL: QAVVTQPASVSGSPGQSITISCTGTSSDVGGYNYVSWYQQHPGKAPKLMIYDVSNRPSGVSNRFSGSKSGNTASLTISGLQAEDEADYYCSSYTSSSTLVFGGGTKVTVL | 4.05 nM | – | – | – | 2.25 µg/mL | – | 4.04 nM | 1.13 µg/mL | – | no binding (tested: one concentration, not printed) | no binding (tested: one concentration, not printed) | – |
